By Kd is commonly meant a measure of binding affinity in units of concentration. Read a high Kd as weaker binding.

For the assay, the target named is T1, Full-length human CTGF (human, UniProt P29279 27-349).
T1 construct: Corresponds to NCBI NP_001892.1 with the signal peptide omitted; purchased from R&D Systems; also called hCTGF full length; full length CTGF
T1 sequence: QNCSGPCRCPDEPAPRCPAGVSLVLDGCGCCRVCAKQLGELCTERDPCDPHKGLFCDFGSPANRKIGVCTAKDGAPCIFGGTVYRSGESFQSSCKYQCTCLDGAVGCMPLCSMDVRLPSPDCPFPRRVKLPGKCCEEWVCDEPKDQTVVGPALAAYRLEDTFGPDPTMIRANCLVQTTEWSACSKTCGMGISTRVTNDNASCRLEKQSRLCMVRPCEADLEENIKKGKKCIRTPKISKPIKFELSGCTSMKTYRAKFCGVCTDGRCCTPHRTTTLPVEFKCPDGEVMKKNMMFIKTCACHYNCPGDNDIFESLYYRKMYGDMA
The experiment in a line: SPR, full length CTGF. On the technique in general: SPR reads the build-up and loss of mass on a sensor chip optically.

B1: A94 (antibody, human IgG1, kappa, L234A L235A, V domains shown)
VH: EVQLVESGGGLVQPGGSLRLSCAASGFTFSDYYMAWVRQAPGKGLEWVANINYEGSRTDLLDSLKSRFTISRDNAKNSVYLQMNSLRAEDTAVYYCARDTSRGSYFDVWGAGTTVTVSS
VL: VVMTQTPLSLSVSLGDQASISCKSSQSIVHYNGNTYLEWYLQKPGQSPQLLIYKVSSRFSGVPDRFSGSGSGTDFTLKISRVEAEDLGVYYCFQGSHFPLTFGQGTKLEIKR
B1 yielded a Kd of 0.19 nM.

B2: A121 (antibody, human IgG1, kappa, L234A L235A, V domains shown)
VH: EVQLVESGGGLVQPGGSLRLSCAASGFTFSDYYMAWVRQAPGKGLEWVANINYEGSRTDLLESLKSRFTISRDNAKNSVYLQMNSLRAEDTAVYYCARDTSRGSYFDVWGAGTTVTVSS
VL: VVMTQTPLSLPVSLGDQASISCRSSQSIVHYNGNTYLEWYLQKPGQSPQLLIYKVSNRDSGVPDRFSGSGSGTDFTLKISRVEAEDLGVYYCFQGSHFPLTFGQGTKLEIKR
Take B2: the affinity, expressed as Kd, was 0.24 nM.

B3: A124 (antibody, human IgG1, kappa, L234A L235A, V domains shown)
VH: EVQLVESGGGLVQPGGSLRLSCAASGFTFSDYYMAWVRQAPGKGLEWVANINYYGSRTDLLASLKSRFTISRDNAKNSVYLQMNSLRAEDTAVYYCARDTSRGSYFDVWGAGTTVTVSS
VL: VVMTQTPLSLPVSLGDQASISCRSSQSIVHYNGNTYLEWYLQKPGQSPQLLIYKVSNRDSGVPDRFSGSGSGTDFTLKISRVEAEDLGVYYCFQGSHFPLTFGQGTKLEIKR
Consider B3, for which the Kd stood at 0.25 nM.

B4: A122 (antibody, human IgG1, kappa, L234A L235A, V domains shown)
VH: EVQLVESGGGLVQPGGSLRLSCAASGFTFSDYYMAWVRQAPGKGLEWVANINYYGSRTDLLESLKSRFTISRDNAKNSVYLQMNSLRAEDTAVYYCARDTSRGSYFDVWGAGTTVTVSS
VL: VVMTQTPLSLPVSLGDQASISCRSSQSIVHYNGNTYLEWYLQKPGQSPQLLIYKVSNRDSGVPDRFSGSGSGTDFTLKISRVEAEDLGVYYCFQGSHFPLTFGQGTKLEIKR
On to B4, for which the Kd was 0.23 nM.

B5: A101 (antibody, human IgG1, kappa, L234A L235A)
light: VVMTQTPLSLSVSLGDQASISCKSSQSIVHYNGNTYLEWYLQKPGQSPQLLIYKVSSRASGVPDRFSGSGSGTDFTLKISRVEAEDLGVYYCFQGSHFPLTFGQGTKLEIKRTVAAPSVFIFPPSDEQLKSGTASVVCLLNNFYPREAKVQWKVDNALQSGNSQESVTEQDSKDSTYSLSSTLTLSKADYEKHKVYACEVTHQGLSSPVTKSFNRGEC
heavy: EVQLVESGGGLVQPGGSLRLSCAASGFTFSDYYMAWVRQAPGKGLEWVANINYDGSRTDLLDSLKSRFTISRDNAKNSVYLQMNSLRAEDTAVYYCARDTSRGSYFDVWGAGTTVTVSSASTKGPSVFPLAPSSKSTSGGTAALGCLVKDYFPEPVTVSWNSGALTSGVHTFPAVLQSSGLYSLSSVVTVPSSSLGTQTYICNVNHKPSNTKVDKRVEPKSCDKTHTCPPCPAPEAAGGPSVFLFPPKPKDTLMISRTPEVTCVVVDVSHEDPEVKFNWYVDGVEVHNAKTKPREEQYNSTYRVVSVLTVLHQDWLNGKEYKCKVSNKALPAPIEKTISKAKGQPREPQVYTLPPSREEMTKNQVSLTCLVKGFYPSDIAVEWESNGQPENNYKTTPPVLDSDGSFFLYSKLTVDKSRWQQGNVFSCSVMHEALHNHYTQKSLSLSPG
The molecule B5 gave a Kd of 0.17 nM.

B6: A127 (antibody, human IgG1, kappa, L234A L235A, V domains shown)
VH: EVQLVESGGGLVQPGGSLRLSCAASGFTFSDYYMAWVRQAPGKGLEWVANINYDGSRTDLLESLKSRFTISRDNAKNSVYLQMNSLRAEDTAVYYCARDTSRGSYFDVWGAGTTVTVSS
VL: VVMTQTPLSLPVSLGDQASISCRSSQSIVHYNGNTYLEWYLQKPGQSPQLLIYKVSNRDSGVPDRFSGSGSGTDFTLKISRVEAEDLGVYYCFQGSHFPLTFGQGTKLEIKR
In turn, B6 gave a Kd of 0.28 nM.

B7: A123 (antibody, human IgG1, kappa, L234A L235A, V domains shown)
VH: EVQLVESGGGLVQPGGSLRLSCAASGFTFSDYYMAWVRQAPGKGLEWVANINYEGSRTDLLASLKSRFTISRDNAKNSVYLQMNSLRAEDTAVYYCARDTSRGSYFDVWGAGTTVTVSS
VL: VVMTQTPLSLPVSLGDQASISCRSSQSIVHYNGNTYLEWYLQKPGQSPQLLIYKVSNRDSGVPDRFSGSGSGTDFTLKISRVEAEDLGVYYCFQGSHFPLTFGQGTKLEIKR
Molecule B7 had a Kd of 0.21 nM.

B8: A104 (antibody, human IgG1, kappa, L234A L235A)
light: VVMTQTPLSLSVSLGDQASISCKSSQSIVHYNGNTYLEWYLQKPGQSPQLLIYKVSSRASGVPDRFSGSGSGTDFTLKISRVEAEDLGVYYCFQGSHFPLTFGQGTKLEIKRTVAAPSVFIFPPSDEQLKSGTASVVCLLNNFYPREAKVQWKVDNALQSGNSQESVTEQDSKDSTYSLSSTLTLSKADYEKHKVYACEVTHQGLSSPVTKSFNRGEC
heavy: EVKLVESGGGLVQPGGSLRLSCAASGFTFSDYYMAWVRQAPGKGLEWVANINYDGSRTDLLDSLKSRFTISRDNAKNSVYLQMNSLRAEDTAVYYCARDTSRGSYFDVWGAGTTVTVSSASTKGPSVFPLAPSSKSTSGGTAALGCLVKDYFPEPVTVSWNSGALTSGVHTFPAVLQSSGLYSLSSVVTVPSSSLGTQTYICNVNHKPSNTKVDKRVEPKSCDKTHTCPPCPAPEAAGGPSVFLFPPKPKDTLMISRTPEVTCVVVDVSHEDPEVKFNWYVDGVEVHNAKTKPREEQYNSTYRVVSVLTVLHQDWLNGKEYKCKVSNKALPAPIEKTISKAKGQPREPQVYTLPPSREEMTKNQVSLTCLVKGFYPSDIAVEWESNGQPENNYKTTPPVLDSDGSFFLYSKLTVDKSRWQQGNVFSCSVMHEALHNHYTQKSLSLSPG
As to B8, the affinity, expressed as Kd, was 0.17 nM.

B9: A96 (antibody, human IgG1, kappa, L234A L235A)
light: VVMTQTPLSLSVSLGDQASISCKSSQSIVHYNGNTYLEWYLQKPGQSPQLLIYKVSSRFSGVPDRFSGSGSGTDFTLKISRVEAEDLGVYYCFQGSHFPLTFGQGTKLEIKRTVAAPSVFIFPPSDEQLKSGTASVVCLLNNFYPREAKVQWKVDNALQSGNSQESVTEQDSKDSTYSLSSTLTLSKADYEKHKVYACEVTHQGLSSPVTKSFNRGEC
heavy: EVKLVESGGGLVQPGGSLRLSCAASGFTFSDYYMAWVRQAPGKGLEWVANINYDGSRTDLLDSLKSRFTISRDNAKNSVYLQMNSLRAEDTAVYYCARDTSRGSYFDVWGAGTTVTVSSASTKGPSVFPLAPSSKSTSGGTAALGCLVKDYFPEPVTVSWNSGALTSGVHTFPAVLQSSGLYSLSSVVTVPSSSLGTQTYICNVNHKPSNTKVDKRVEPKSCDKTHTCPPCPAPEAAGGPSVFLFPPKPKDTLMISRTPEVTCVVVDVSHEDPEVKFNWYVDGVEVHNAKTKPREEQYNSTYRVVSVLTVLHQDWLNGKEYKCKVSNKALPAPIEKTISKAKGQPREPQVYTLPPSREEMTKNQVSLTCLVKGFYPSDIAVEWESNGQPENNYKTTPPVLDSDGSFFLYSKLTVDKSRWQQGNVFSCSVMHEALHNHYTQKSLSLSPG
The molecule B9 showed a Kd of 0.19 nM.

B10: A99 (antibody, human IgG1, kappa, L234A L235A)
light: VVMTQTPLSLSVSLGDQASISCKSSQSIVHYNGNTYLEWYLQKPGQSPQLLIYKVSSRASGVPDRFSGSGSGTDFTLKISRVEAEDLGVYYCFQGSHFPLTFGQGTKLEIKRTVAAPSVFIFPPSDEQLKSGTASVVCLLNNFYPREAKVQWKVDNALQSGNSQESVTEQDSKDSTYSLSSTLTLSKADYEKHKVYACEVTHQGLSSPVTKSFNRGEC
heavy: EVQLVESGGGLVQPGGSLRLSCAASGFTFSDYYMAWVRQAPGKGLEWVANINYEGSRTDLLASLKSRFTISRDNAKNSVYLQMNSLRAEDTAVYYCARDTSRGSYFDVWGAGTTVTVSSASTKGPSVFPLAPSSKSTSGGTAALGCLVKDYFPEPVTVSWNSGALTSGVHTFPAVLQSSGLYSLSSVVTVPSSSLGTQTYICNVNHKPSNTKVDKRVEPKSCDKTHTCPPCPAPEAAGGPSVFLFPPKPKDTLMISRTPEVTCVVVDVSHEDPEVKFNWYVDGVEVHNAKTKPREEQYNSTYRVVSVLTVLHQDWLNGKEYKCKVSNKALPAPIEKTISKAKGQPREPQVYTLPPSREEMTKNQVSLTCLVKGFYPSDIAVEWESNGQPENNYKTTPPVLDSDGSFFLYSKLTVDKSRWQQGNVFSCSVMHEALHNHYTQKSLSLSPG
B10 had a Kd of 0.11 nM.

B11: A95 (antibody, human IgG1, kappa, L234A L235A, V domains shown)
VH: EVQLVESGGGLVQPGGSLRLSCAASGFTFSDYYMAWVRQAPGKGLEWVANINYDGSRTDLLESLKSRFTISRDNAKNSVYLQMNSLRAEDTAVYYCARDTSRGSYFDVWGAGTTVTVSS
VL: VVMTQTPLSLSVSLGDQASISCKSSQSIVHYNGNTYLEWYLQKPGQSPQLLIYKVSSRFSGVPDRFSGSGSGTDFTLKISRVEAEDLGVYYCFQGSHFPLTFGQGTKLEIKR
B11: the Kd worked out at 0.19 nM.

B12: A100 (antibody, human IgG1, kappa, L234A L235A)
light: VVMTQTPLSLSVSLGDQASISCKSSQSIVHYNGNTYLEWYLQKPGQSPQLLIYKVSSRASGVPDRFSGSGSGTDFTLKISRVEAEDLGVYYCFQGSHFPLTFGQGTKLEIKRTVAAPSVFIFPPSDEQLKSGTASVVCLLNNFYPREAKVQWKVDNALQSGNSQESVTEQDSKDSTYSLSSTLTLSKADYEKHKVYACEVTHQGLSSPVTKSFNRGEC
heavy: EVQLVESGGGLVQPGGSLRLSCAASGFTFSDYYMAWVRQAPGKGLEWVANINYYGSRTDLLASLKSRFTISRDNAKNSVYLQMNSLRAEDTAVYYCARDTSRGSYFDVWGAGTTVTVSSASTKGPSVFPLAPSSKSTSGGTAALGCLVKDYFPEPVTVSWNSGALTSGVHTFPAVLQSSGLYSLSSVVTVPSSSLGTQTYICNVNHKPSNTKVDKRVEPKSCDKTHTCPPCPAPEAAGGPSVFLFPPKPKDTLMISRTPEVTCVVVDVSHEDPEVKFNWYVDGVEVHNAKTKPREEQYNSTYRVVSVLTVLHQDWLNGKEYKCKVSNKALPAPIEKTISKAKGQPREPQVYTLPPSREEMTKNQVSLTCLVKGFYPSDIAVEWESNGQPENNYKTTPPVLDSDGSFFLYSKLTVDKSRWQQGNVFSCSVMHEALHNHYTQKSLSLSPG
Take B12: the Kd turned out to be 0.13 nM.

B13: A103 (antibody, human IgG1, kappa, L234A L235A)
light: VVMTQTPLSLSVSLGDQASISCKSSQSIVHYNGNTYLEWYLQKPGQSPQLLIYKVSSRASGVPDRFSGSGSGTDFTLKISRVEAEDLGVYYCFQGSHFPLTFGQGTKLEIKRTVAAPSVFIFPPSDEQLKSGTASVVCLLNNFYPREAKVQWKVDNALQSGNSQESVTEQDSKDSTYSLSSTLTLSKADYEKHKVYACEVTHQGLSSPVTKSFNRGEC
heavy: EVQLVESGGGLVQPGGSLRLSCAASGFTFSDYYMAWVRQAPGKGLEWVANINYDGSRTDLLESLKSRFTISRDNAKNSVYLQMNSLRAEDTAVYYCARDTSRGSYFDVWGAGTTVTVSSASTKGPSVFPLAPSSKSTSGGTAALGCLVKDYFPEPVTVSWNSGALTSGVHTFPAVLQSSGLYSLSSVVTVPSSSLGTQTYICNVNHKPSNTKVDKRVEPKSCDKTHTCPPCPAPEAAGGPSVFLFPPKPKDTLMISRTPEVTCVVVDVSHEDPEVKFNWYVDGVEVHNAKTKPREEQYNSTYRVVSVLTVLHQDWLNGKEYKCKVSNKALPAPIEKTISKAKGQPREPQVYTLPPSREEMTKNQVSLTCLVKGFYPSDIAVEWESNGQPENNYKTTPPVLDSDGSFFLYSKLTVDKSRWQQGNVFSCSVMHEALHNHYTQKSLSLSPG
For the molecule B13, binding was characterised by a dissociation constant (Kd) of 0.15 nM.

B14: A102 (antibody, human IgG1, kappa, L234A L235A)
light: VVMTQTPLSLSVSLGDQASISCKSSQSIVHYNGNTYLEWYLQKPGQSPQLLIYKVSSRASGVPDRFSGSGSGTDFTLKISRVEAEDLGVYYCFQGSHFPLTFGQGTKLEIKRTVAAPSVFIFPPSDEQLKSGTASVVCLLNNFYPREAKVQWKVDNALQSGNSQESVTEQDSKDSTYSLSSTLTLSKADYEKHKVYACEVTHQGLSSPVTKSFNRGEC
heavy: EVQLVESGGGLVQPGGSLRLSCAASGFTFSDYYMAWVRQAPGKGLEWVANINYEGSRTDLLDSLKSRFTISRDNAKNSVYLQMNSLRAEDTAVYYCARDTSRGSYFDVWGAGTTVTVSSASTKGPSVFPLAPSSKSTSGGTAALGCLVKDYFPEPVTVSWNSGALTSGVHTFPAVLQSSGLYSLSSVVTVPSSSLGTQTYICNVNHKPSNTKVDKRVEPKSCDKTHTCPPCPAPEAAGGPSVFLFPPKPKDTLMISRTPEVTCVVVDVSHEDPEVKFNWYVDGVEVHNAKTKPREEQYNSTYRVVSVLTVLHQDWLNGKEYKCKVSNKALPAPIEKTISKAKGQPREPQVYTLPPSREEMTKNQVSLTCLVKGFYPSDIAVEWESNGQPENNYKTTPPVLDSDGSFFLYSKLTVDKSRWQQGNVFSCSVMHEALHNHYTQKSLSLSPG
The molecule B14 yielded a Kd of 0.15 nM.

B15: A125 (antibody, human IgG1, kappa, L234A L235A)
light: VVMTQTPLSLPVSLGDQASISCRSSQSIVHYNGNTYLEWYLQKPGQSPQLLIYKVSNRDSGVPDRFSGSGSGTDFTLKISRVEAEDLGVYYCFQGSHFPLTFGQGTKLEIKRTVAAPSVFIFPPSDEQLKSGTASVVCLLNNFYPREAKVQWKVDNALQSGNSQESVTEQDSKDSTYSLSSTLTLSKADYEKHKVYACEVTHQGLSSPVTKSFNRGEC
heavy: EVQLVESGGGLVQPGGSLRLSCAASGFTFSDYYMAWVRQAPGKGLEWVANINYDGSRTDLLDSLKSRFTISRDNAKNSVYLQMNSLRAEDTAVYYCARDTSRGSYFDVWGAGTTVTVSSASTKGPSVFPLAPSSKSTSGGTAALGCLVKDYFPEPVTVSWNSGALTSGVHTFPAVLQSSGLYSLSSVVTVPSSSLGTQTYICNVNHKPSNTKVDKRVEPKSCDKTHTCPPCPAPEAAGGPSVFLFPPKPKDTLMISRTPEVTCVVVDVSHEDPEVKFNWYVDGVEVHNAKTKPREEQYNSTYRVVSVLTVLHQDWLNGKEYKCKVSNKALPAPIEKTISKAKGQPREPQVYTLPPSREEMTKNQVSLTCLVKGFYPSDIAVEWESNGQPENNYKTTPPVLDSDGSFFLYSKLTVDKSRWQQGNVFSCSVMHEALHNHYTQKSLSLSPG
With B15, the Kd came to 0.26 nM.

B16: A98 (antibody, human IgG1, kappa, L234A L235A)
light: VVMTQTPLSLSVSLGDQASISCKSSQSIVHYNGNTYLEWYLQKPGQSPQLLIYKVSSRASGVPDRFSGSGSGTDFTLKISRVEAEDLGVYYCFQGSHFPLTFGQGTKLEIKRTVAAPSVFIFPPSDEQLKSGTASVVCLLNNFYPREAKVQWKVDNALQSGNSQESVTEQDSKDSTYSLSSTLTLSKADYEKHKVYACEVTHQGLSSPVTKSFNRGEC
heavy: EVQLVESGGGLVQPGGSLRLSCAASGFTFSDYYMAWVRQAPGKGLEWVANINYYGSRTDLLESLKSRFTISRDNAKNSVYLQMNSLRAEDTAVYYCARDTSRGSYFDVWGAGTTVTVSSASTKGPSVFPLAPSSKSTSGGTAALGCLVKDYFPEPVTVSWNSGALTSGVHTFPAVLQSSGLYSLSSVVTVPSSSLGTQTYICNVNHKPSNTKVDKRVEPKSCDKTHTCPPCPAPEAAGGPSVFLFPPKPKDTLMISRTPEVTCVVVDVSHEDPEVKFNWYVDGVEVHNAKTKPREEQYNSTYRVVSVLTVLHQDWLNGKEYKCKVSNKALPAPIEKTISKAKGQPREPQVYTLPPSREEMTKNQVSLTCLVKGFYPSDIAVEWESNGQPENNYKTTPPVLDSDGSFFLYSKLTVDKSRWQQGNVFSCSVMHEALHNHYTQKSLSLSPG
Regarding B16, the affinity, expressed as Kd, was 0.12 nM.

B17: A126 (antibody, human IgG1, kappa, L234A L235A, V domains shown)
VH: EVQLVESGGGLVQPGGSLRLSCAASGFTFSDYYMAWVRQAPGKGLEWVANINYEGSRTDLLDSLKSRFTISRDNAKNSVYLQMNSLRAEDTAVYYCARDTSRGSYFDVWGAGTTVTVSS
VL: VVMTQTPLSLPVSLGDQASISCRSSQSIVHYNGNTYLEWYLQKPGQSPQLLIYKVSNRDSGVPDRFSGSGSGTDFTLKISRVEAEDLGVYYCFQGSHFPLTFGQGTKLEIKR
Consider B17, for which binding was put at a Kd of 0.27 nM.

B18: A128 (antibody, human IgG1, kappa, L234A L235A)
light: VVMTQTPLSLPVSLGDQASISCRSSQSIVHYNGNTYLEWYLQKPGQSPQLLIYKVSNRDSGVPDRFSGSGSGTDFTLKISRVEAEDLGVYYCFQGSHFPLTFGQGTKLEIKRTVAAPSVFIFPPSDEQLKSGTASVVCLLNNFYPREAKVQWKVDNALQSGNSQESVTEQDSKDSTYSLSSTLTLSKADYEKHKVYACEVTHQGLSSPVTKSFNRGEC
heavy: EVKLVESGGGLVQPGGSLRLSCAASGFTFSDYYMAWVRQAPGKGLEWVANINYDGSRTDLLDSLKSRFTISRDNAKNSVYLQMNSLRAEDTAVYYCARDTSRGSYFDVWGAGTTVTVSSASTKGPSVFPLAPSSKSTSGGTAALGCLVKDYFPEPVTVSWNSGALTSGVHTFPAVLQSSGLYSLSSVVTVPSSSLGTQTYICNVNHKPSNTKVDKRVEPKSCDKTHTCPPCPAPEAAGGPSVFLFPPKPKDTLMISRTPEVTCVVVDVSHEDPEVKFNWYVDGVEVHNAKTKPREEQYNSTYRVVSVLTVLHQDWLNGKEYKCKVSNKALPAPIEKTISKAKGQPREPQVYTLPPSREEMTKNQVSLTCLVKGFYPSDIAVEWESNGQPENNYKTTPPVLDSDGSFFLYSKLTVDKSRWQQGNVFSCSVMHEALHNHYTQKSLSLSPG
notes: humanized from the 15 pM mouse clone; also called humanized antibody A128
The molecule B18 registered a Kd of 0.27 nM.

B19: A105 (antibody, human IgG1, kappa, L234A L235A)
light: DIVMTQTPLSLSVSLGDQASISCKSSQSIVHYNGNTYLEWYLQKPGQSPQLLIYKVSSRASGVPDRFSGSGSGTDFTLKISRVEAEDLGVYYCFQGSHFPLTFGQGTKLEIKRTVAAPSVFIFPPSDEQLKSGTASVVCLLNNFYPREAKVQWKVDNALQSGNSQESVTEQDSKDSTYSLSSTLTLSKADYEKHKVYACEVTHQGLSSPVTKSFNRGEC
heavy: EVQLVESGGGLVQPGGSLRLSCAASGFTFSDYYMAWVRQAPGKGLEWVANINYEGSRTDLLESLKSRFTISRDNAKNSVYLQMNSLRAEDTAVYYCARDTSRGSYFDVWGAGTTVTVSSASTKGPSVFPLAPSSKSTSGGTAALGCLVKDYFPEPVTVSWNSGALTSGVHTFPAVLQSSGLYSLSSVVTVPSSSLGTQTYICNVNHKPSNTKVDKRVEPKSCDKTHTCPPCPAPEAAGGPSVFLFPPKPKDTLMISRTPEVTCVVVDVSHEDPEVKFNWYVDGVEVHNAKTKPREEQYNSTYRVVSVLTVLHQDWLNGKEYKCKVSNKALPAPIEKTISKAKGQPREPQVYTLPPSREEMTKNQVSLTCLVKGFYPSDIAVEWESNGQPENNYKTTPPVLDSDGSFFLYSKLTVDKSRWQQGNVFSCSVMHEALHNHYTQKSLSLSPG
Molecule B19 had a Kd of 0.42 nM.

B20: A106 (antibody, human IgG1, kappa, L234A L235A)
light: DIVMTQTPLSLSVSLGDQASISCKSSQSIVHYNGNTYLEWYLQKPGQSPQLLIYKVSSRASGVPDRFSGSGSGTDFTLKISRVEAEDLGVYYCFQGSHFPLTFGQGTKLEIKRTVAAPSVFIFPPSDEQLKSGTASVVCLLNNFYPREAKVQWKVDNALQSGNSQESVTEQDSKDSTYSLSSTLTLSKADYEKHKVYACEVTHQGLSSPVTKSFNRGEC
heavy: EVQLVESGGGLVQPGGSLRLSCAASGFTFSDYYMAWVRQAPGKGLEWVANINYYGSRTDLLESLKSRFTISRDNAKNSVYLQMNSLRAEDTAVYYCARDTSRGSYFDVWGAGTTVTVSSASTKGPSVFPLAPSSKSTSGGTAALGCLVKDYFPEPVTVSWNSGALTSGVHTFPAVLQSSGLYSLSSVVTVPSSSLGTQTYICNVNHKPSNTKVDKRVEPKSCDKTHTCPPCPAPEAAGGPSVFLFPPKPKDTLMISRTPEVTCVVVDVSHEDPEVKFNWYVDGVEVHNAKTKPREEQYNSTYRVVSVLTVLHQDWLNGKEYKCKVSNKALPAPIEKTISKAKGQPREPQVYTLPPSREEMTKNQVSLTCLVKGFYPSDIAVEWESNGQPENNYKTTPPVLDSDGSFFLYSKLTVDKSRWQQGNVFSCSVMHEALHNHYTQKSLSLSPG
B20 registered a Kd of 0.43 nM.

B21: A107 (antibody, human IgG1, kappa, L234A L235A)
light: DIVMTQTPLSLSVSLGDQASISCKSSQSIVHYNGNTYLEWYLQKPGQSPQLLIYKVSSRASGVPDRFSGSGSGTDFTLKISRVEAEDLGVYYCFQGSHFPLTFGQGTKLEIKRTVAAPSVFIFPPSDEQLKSGTASVVCLLNNFYPREAKVQWKVDNALQSGNSQESVTEQDSKDSTYSLSSTLTLSKADYEKHKVYACEVTHQGLSSPVTKSFNRGEC
heavy: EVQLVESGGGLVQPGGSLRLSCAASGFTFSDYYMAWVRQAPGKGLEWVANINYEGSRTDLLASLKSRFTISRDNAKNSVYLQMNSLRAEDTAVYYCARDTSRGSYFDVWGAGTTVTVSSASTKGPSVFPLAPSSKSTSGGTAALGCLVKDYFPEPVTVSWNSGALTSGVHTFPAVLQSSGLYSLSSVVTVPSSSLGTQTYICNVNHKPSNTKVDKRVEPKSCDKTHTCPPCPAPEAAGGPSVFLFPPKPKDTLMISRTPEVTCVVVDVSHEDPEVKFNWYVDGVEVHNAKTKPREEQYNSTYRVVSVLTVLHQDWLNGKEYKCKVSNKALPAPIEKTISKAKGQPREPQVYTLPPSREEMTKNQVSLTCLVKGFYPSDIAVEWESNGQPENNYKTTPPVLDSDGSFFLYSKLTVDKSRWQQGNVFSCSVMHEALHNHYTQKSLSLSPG
The molecule B21 yielded a Kd of 0.37 nM.

The values above are taken from US20250277020A1 (Boehringer Ingelheim, published 2025).
